Results as given in article PMC7972864, “Fucoxanthin Prevents 6-OHDA-Induced Neurotoxicity by Targeting Keap1” (Oxidative Medicine and Cellular Longevity, 2021).

Biological target: human Keap1 protein (human), Q14145
Experiment: BLI
Settings: natural protein; chains chain; biotinylated (site not stated); remark: other sources report otherwise

human Keap1 protein (human), Q14145, sequence (Q14145 whole entry): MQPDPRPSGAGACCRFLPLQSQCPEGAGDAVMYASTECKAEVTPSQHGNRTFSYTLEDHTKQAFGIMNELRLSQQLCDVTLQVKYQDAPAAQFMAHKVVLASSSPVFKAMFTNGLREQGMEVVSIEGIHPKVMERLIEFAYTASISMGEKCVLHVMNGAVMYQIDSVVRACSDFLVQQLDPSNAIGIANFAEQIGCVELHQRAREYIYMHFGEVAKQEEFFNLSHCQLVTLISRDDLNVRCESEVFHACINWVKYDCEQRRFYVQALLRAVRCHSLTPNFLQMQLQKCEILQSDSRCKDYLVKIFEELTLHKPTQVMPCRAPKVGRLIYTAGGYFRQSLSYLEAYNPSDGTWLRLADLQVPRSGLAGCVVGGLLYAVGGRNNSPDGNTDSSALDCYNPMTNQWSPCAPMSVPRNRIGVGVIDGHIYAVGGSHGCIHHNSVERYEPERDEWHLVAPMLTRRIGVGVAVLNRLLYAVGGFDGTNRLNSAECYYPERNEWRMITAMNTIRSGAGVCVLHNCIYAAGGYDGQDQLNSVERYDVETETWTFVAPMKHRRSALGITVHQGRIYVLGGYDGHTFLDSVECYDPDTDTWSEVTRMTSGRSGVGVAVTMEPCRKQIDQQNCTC

B1: human Nrf2 protein, Q16236 1-605 (protein)
chain: MMDLELPPPGLPSQQDMDLIDILWRQDIDLGVSREVFDFSQRRKEYELEKQKKLEKERQEQLQKEQEKAFFAQLQLDEETGEFLPIQPAQHIQSETSGSANYSQVAHIPKSDALYFDDCMQLLAQTFPFVDDNEVSSATFQSLVPDIPGHIESPVFIATNQAQSPETSVAQVAPVDLDGMQQDIEQVWEELLSIPELQCLNIENDKLVETTMVPSPEAKLTEVDNYHFYSSIPSMEKEVGNCSPHFLNAFEDSFSSILSTEDPNQLTVNSLNSDATVNTDFGDEFYSAFIAEPSISNSMPSPATLSHSLSELLNGPIDVSDLSLCKAFNQNHPESTAEFNDSDSGISLNTSPSVASPEHSVESSSYGDTLLGLSDSEVEELDSAPGSVKQNGPKTPVHSSGDMVQPLSPSQGQSTHVHDAQCENTPEKELPVSPGHRKTPFTKDKHSSRLEAHLTRDELRAKALHIPFPVEKIINLPVVDFNEMMSKEQFNEAQLALIRDIRRRGKNKVAAQNCRKRKLENIVELEQDLDHLKDEKEKLLKEKGENDKSLHLLKKQLSTLYLEVFSMLRDEDGKPYSPSEYSLQQTRDGNVFLVPKSKKPDVKKN
  Kd: 0.0126 µM
